The target of data set [1] is T1, NRF2;MAFG (human?;human?, UniProt Q16236;O15525 1-605;1-162, |). Put plainly: protein binding microarray, anti-NRF2 detection.
The target of data set [2] is T1, NRF2;MAFG. As to the kind of experiment: protein binding microarray, anti-NRF2 detection. The source holds these as a separate data set.

B1: NQO1.ARE (dsDNA)
DNA 1: CCGCAGTCACAGTGACTCAGCAGAATCTGAGCCACCCAACCGCCCAACTT
DNA 2: AAGTTGGGCGGTTGGGTGGCTCAGATTCTGCTGAGTCACTGTGACTGCGG
modifications: 3' biotin on top strand; nick in top strand between nt 33 and 34
As to B1, in the data set with NRF2;MAFG [1], the binding signal is 1 relative to NQO1.ARE.

B2: 7A (dsDNA)
DNA 1: CCGCAGTCACAGTGACTAAGCAGAATCTGAGCCACCCAACCGCCCAACTT
DNA 2: AAGTTGGGCGGTTGGGTGGCTCAGATTCTGCTTAGTCACTGTGACTGCGG
modifications: 3' biotin on top strand; nick in top strand between nt 33 and 34
In the case of B2, in the data set with NRF2;MAFG [2], the binding result is listed as “binds”.
